Values of other authors, collected in article PMC4964448.

Key:
[1] = target: PSGL-1 (Homo sapiens) (UniProt Q14242)
[2] = target: MMP9 (Homo sapiens) (UniProt P14780)
Sequence of UniProt P14780 (P14780 94-707): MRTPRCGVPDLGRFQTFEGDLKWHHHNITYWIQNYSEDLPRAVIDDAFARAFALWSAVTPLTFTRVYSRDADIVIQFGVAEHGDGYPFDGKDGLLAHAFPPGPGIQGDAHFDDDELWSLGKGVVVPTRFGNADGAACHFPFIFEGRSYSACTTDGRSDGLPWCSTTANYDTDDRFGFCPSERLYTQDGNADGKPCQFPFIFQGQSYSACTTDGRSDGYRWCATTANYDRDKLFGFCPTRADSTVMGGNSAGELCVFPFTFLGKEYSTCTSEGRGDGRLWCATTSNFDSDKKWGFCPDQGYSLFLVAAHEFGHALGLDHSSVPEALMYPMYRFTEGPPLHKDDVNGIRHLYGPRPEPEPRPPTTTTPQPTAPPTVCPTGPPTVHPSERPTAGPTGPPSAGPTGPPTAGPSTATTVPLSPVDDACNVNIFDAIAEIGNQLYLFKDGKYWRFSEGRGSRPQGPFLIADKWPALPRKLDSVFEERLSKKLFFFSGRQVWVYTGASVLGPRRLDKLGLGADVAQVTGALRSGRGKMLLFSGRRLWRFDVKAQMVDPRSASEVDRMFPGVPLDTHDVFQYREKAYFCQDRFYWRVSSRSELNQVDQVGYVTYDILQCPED

Sequence of UniProt Q14242 (Q14242 42-320): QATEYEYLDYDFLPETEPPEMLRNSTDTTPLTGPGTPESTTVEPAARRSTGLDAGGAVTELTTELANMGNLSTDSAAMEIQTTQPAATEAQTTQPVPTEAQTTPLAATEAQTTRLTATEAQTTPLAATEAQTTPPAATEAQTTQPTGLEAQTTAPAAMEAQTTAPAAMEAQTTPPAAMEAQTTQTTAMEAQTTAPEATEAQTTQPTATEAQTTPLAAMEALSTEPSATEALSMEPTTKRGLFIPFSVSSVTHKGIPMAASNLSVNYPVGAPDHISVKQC

For SSL5 (from UniProt Q2G1S6), the Kd [1] is given as 820 nM and the Kd [2] is given as 1.9 nM.
